Source: patent publication US7211402B2, “Transcription factor coactivator protein, p/CIP” (The Regents of the University of California, priority 1997, dated 2007)
Entries after “also recorded” stand apart in the source; their conditions may differ.

Tests used:
liganded RAR and NCoA-1 = molecular target: T1, liganded RAR and NCoA-1 (Homo sapiens, UniProt P10276); assay: In vitro competition assay, GST-RAR interaction with in vitro translated NCoA-1; assay type: binding; details: excess peptide; 35S-labeled NCoA interaction domain fragment (aa 635–760); TTNPB 1 μM
T1 construct: GST-RAR (143–462), GST-ER(251–595) and GST-CBP(2058–2170) were generated as described; made in house; NCoA-1 was made by in vitro translation
T1 sequence (P10276 143-462): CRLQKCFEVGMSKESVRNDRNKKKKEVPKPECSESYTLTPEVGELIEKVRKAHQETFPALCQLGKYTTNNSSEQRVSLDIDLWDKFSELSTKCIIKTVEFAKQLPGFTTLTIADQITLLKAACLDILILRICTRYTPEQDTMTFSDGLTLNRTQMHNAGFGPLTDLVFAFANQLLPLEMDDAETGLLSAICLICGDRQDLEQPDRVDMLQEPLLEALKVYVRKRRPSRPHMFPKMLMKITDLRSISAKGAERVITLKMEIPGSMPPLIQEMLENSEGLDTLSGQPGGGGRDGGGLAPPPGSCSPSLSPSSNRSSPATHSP
Description: GST-RAR (143–462), GST-ER(251–595) and GST-CBP(2058–2170) were generated as described (Kamei et al., supra, 1996). 25 ul of GST SEPHAROSE beads containing 10 ug of the GST recombinant proteins were incubated in the presence or absence of the appropriate ligand for 30 min at room temperature, followed by the addition of 1 mg of cell extract and incubated for an additional 1 hr at 4° C. The complexes were then centrifuged, washed three times in NET-N buffer, separated by SDS-PAGE and western blotted with the appropriate antibodies (1 ug/ml). For co-immunoprecipitation assays, 1 mg of cell extract was incubated in the presence of 2 ug of p/CIP or NCoA antibody for 2 hr at 4° C. The immune complexes were precipitated with protein A SEPHAROSE (50% w/v). Protein complexes were separated by SDS-PAGE (Laemmle, Nature 227:680–685 (1970), which is incorporated herein by reference) and western blotted using 1 ug/ml of an anti-CBP/P300 monoclonal antibody (UBI). For in vitro competition assays, the indicated peptides were incubated with in vitro translated NCoA-1 prior to GST interaction with RAR.

[1] = system: RAR-dependent transcription; assay: Single cell microinjection assay, retinoic acid-dependent RARE/LacZ reporter; assay type: cell-based, rat; details: for effect on retinoic acid-dependent gene activation by RAR: microinjection into Rat-1 cells
Description: (§1) Insulin-responsive Rat-1 fibroblasts were seeded on acid washed glass coverslips at subconfluent density and grown in MNE/F12 medium supplemented with 10% fetal bovine serum, gentamicin and methotrexate. Prior to the injection, the cells were rendered quiescent by incubation in serum-free medium for 24–36 hr. Plasmids were injected into the nuclei of cells at a final concentration of […]. Peptides were injected at a concentration of 200 mM. Either preimmune IgG of the appropriate species or antibodies directed against p/CIP, NCoA-1 or NCoA-2 were co-injected and allowed the unambiguous identification of the injected cells.
(§2) Microinjections were carried out using an Eppendorf semiautomated microinjection system mounted on an inverted Zeiss microscope. Approximately 1 hr after injection, the cells were stimulated, where indicated, with the appropriate ligand. In the case of rescue experiments, the cells were stimulated with ligand 6 hr after injection, to allow protein expression. After overnight incubation, the cells were fixed, then stained to detect injected IgG and β-galactosidase expression (Rose et al., J. Cell. Biol. 119:1405–1411 (1992), which is incorporated herein by reference; Kamei et al., supra, 1996). Injected cells were identified by staining with tetramethylrhodamine-conjugated donkey anti-rabbit IgG.

[2] = system: STAT-dependent (interferon γ-dependent) transcription; assay: Single cell microinjection assay, interferon γ-dependent GAS/LacZ reporter; assay type: cell-based, rat; details: for effect on interferon γ-dependent (STAT) gene activation: microinjection into Rat-1 cells, GAS/LacZ reporter
Description: as §1, §2

[3] = system: SP-1 or CMV dependent transcription; assay: Single cell microinjection assay, control promoters lacking nuclear receptor response elements; assay type: cell-based; details: microinjection into Rat-1 cells
Description: as §1, §2

[4] = system: TPA-dependent transcriptional activation; assay: Single cell microinjection assay, TPA-dependent reporter; assay type: cell-based; details: microinjection into Rat-1 cells
Description: as §1, §2

[5] = molecular target: T2, estrogen receptor ligand binding domain (yeast two-hybrid bait, liganded) (UniProt P03372 251-595); assay: yeast two-hybrid
T2 construct: Tested with estradiol (10^-6 M); also called liganded estrogen receptor (LBD); ER
T2 sequence (looked up): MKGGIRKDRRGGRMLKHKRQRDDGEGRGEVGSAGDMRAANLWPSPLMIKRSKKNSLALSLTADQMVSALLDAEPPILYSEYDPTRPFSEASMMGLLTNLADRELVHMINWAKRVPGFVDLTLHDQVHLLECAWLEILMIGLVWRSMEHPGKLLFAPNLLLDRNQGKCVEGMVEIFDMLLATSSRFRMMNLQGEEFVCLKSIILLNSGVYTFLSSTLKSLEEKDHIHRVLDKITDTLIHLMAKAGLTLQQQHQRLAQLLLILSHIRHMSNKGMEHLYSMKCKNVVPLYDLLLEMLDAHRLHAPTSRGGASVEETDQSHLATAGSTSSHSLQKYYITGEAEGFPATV
Description: EGY 48 cells were transformed with the lac Z reporter plasmid pSH 18–34 with the appropriate bait and prey vectors and plated out on -Ura-His-Trp medium containing 2% galactose.

[6] = simultaneous retinoic acid and interferon γ

LCD 1: peptide corresponding to LCD 1 of NCoA-1; NCoA-1 LCD1 (aa 631–647) (SQTSHKLVQLLTTTAEQ; UniProt P70365 631-647, looked up, fragment)
inhibition of interaction between liganded RAR and NCoA-1 in vitro (liganded RAR and NCoA-1): less effective

LCD4: 19-mer peptide corresponding to NCoA-1 LCD4 (aa 907–926)
effect on retinoic acid-dependent gene activation by RAR [1]: can block
effect on retinoic acid-dependent gene activation by RAR ([1]; listed as NCoA-1 LCD4): inhibits
effect on interferon γ-dependent (STAT) gene activation [2]: does not impair

CBP N′-P1: synthetic peptide of the N-terminal 22 amino acids of CBP; CBP N′-P1 (aa 1–19) (MAENLLDGPPNPKRAKLSS)
effect on retinoic acid-dependent gene activation by RAR [1]: without effect
effect on interferon γ inhibition of RAR-dependent transcription [1, 6]: relieved inhibition; also recorded: fully abolished
effect on interferon γ-dependent (STAT) gene activation [2]: markedly inhibited
effect on retinoic acid dependent inhibition of the GAS/LacZ reporter [2, 6]: had no effect

B1: p/CIP (aa 947–1084): 137 amino acid region of p/CIP (aa 947–1084) containing the core CBP interaction domain (protein, UniProt O09000 947-1084, looked up, fragment)
chain: VPTLPLRSNRLPGARPSLQQQQQQQQQQQQQQQQQQQQQQQMLQMRTGEIPMGMGVNPYSPAVQSNQPGSWPEGMLSMEQGPHGSQNRPLLRNSLDDLLGPPSNAEGQSDERALLDQLHTFLSNTDATGLEEIDRALG
effect on retinoic acid-dependent gene activation by RAR [1]: completely inhibited
effect on retinoic acid-dependent gene activation by RAR ([1]; listed as amino acids 947 to 1084 of p/CIP): inhibits
effect on SP-1 / CMV control promoters (non-CBP-dependent) [3]: did not block
effect on TPA-dependent transcriptional activation [4]: blocked
effect on interferon γ-dependent (STAT) gene activation [2]: blocked

B2: NCoA-1 (aa 635-760) with LCD2 mutation (amino acids 695 to 698, HRLL->AAAA), yeast two-hybrid prey (other, UniProt P70365 635-760, looked up)
chain: HKLVQLLTTTAEQQLRHADIDTSCKDVLSCTGTSSSASSNPSGGTCPSSHSSLTERHKILAAAAQEGSPSDITTLSVEPEKKDSVPASTAVSVSGQSQGSASIKLELDAAKKKESKDHQLLRYLLD
notes: also called Mutations of the LCD2 motif (RLHRLL->RLAAAA); not shown: B42 fusion partner of prey vector pJG 4-5
binding result [5]: no binding
